Results published in US20080293632, “Use of natriuretic peptides for the treatment of stature disorders related to shox gene” (Gudrun RAPPOLD-HOERBRAND, published 2008).

Tests used:
[1] = molecular target: T1, SHOX-GST (GST-SHOX-STM, SHOX aa 1-194) (Homo sapiens, UniProt O15266 O15266:1-194); assay: EMSA; five-nucleotide replacement, entire loss of binding; settings: tags: N-terminal GST (pGEX, E. coli); chain copies: monomer at low, homodimer at high concentration (stated); label: 32P; 5' overhangs filled in
Excerpt: (§1) To create double stranded DNA for mobility shift assays two complementary oligonucleotides were annealed, generating 5′ overhangs on each side to permit radiolabelling using the Taq polymerase. The following oligonucleotides were used in the shift experiments (only the forward strand of the probes are given, putative binding site in bold, mutagenized nucleotides underlined): BNP-1220 Wt: […] [SEQ ID NO: 10]; BNP-1220a: […] [SEQ ID NO: 11]; BNP-1220b: […] [SEQ ID NO: 12]; BNP-1220c: […] [SEQ ID NO: 13]; BNP-600Wt: […] [SEQ ID NO: 14]; BNP-600a: […] CAT [SEQ ID NO: 15]; BNP-600b: […] [SEQ ID NO: 16].
Gel Shift reactions contained 15 mM Hepes pH 7.5, 150 mM NaCl, 1 mM EDTA, 0.5 mM DTT, 0.05% NP-40, 7.5% glycerol, 0.25 mg/ml bovine serum albumin, 1.5 μg poly(dI-dC) and the appropriate ³²P-labelled probe. After addition of protein extract the samples were incubated for 10 min at room temperature. Separation was performed on a 5% nondenaturing polyacrylamide gel with 0.25×TBE at 12 V/cm at room temperature for 50 min. Gels were then dried and exposed overnight at −80° C. […] In competition experiments, varying amounts of unlabelled competitor DNA were added to the samples preceding addition of protein extracts. In supershift experiments, 3 μg of anti-human SHOX-3-specific antibody were applied to the samples and preincubated for 15 min on ice prior separation for 2 h at 12 V/cm and 8° C.

[2] = molecular target: SHOX full length (Homo sapiens, UniProt O15266 O15266:1-292); assay: ChIP with SHOX antibody, U2OS cells, quantitative PCR; settings: tags: tetracycline-inducible in U2OS cells
Procedure: Hereby U2OS cells, which express the SHOX gene for 48 hours, were treated with formaldehyde to allow fixation of the DNA binding proteins to the DNA. The cell chromatin was isolated and the fixed DNA precipitated together with SHOX through addition of a SHOX specific antibody. For controls, […] or water was used instead of the antibody. The precipitated DNA was analyzed by quantitative RT-PCR for an accumulation of SHOX binding sites in the putative regulatory region of the BNP gene.

[3] = molecular target: T1, SHOX-GST (GST-SHOX-STM, SHOX aa 1-194); assay: EMSA; settings: tags: N-terminal GST (pGEX, E. coli); chain copies: monomer at low, homodimer at high concentration (stated); label: 32P; 5' overhangs filled in
Procedure: (§2) FIG. 2A: 10 fmol of ³²P-radiolabelled double-stranded oligonucleotide containing the putative proximal binding site of SHOX was incubated with 0, 0.05, 0.5 and 3 μl purified SHOX-GST (250 nM). Monomeric binding of SHOX-GST could be observed with volumes of 0.05 and 0.5 μl, an increase in SHOX-GST concentration led to the formation of homeodimers.
as §1
(§3) Gel Shift reactions contained 15 mM Hepes pH 7.5, 150 mM NaCl, 1 mM EDTA, 0.5 mM DTT, 0.05% NP-40, 7.5% glycerol, 0.25 mg/ml bovine serum albumin, 1.5 μg poly(dI-dC) and the appropriate ³²P-labelled probe. After addition of protein extract the samples were incubated for 10 min at room temperature. Separation was performed on a 5% nondenaturing polyacrylamide gel with 0.25×TBE at 12 V/cm at room temperature for 50 min. […]

[4] = molecular target: T1, SHOX-GST (GST-SHOX-STM, SHOX aa 1-194); assay: EMSA; settings: tags: N-terminal GST (pGEX, E. coli); chain copies: monomer at low, homodimer at high concentration (stated); label: 32P; 5' overhangs filled in; remark: listed apart in the source
Procedure: as §2, with “3A:” for “2A:”, “double stranded” for “double-stranded”, “distal” for “proximal”
as §1, §3

[5] = molecular target: T1, SHOX-GST (GST-SHOX-STM, SHOX aa 1-194); assay: EMSA; five-nucleotide replacement, entire loss of binding; settings: tags: N-terminal GST (pGEX, E. coli); chain copies: monomer at low, homodimer at high concentration (stated); label: 32P; 5' overhangs filled in; remark: listed apart in the source
Procedure: To test the sequence specificity of the SHOX DNA binding, SHOX-GST was incubated with oligonucleotides containing artificially introduced mutations in the putative SHOX binding site. Nucleotides differing from the wild-type sequence (Wt) are highlighted in green (BNP-1220a, BNP-1220b, BNP-1220c).
as §1
as §3, with “min. Gels were then dried and exposed overnight at −80° C.” for “min.”

T1 sequence (O15266 1-194, one chain of several): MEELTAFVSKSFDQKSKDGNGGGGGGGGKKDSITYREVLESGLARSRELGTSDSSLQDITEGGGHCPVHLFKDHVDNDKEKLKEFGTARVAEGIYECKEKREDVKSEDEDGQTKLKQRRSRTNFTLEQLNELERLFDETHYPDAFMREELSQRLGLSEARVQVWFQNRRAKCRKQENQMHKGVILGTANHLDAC
Sequence of SHOX full length (O15266 whole entry, one chain of several): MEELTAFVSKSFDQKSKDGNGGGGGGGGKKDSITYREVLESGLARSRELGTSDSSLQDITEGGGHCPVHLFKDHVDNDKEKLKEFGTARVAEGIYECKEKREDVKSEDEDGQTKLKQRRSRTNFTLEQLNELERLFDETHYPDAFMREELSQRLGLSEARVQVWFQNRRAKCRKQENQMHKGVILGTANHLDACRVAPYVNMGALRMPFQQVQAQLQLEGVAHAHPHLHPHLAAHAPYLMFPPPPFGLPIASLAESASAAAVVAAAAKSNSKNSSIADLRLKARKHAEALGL

B1: BNP-600b (dsDNA)
DNA 1: GGGTTCCTGGTCATACCCAGGCTTTTGGGGAAGGGCCACTGGGGAATCAGCAT
DNA 2: ATGCTGATTCCCCAGTGGCCCTTCCCCAAAAGCCTGGGTATGACCAGGAACCC
- binding result [1]: no binding

B2: BNP-1220 chromatin region (dsDNA)
DNA 1: TAATGATAATTA
DNA 2: TAATTATCATTA
- binding signal [2]: 301 fold enrichment

B3: BNP-600 Wt (dsDNA)
DNA 1: TTCCTGGTCATACCCAGGCTTTTAATGAATTGCCACTGGGGAATCAGCAT
DNA 2: ATGCTGATTCCCCAGTGGCAATTCATTAAAAGCCTGGGTATGACCAGGAA
- binding result [3]: binds

B4: BNP-600 chromatin region (dsDNA)
DNA 1: TAATGAATTG
DNA 2: CAATTCATTA
- binding signal [2]: 428 fold enrichment

B5: BNP-1220 Wt (dsDNA)
DNA 1: TAATCACCAGGCCACCTGCTAATGATAATTAGATCATGGGTGGTCAGATG
DNA 2: CATCTGACCACCCATGATCTAATTATCATTAGCAGGTGGCCTGGTGATTA
- binding result [4]: binds

B6: BNP-1220c (dsDNA)
DNA 1: GGGTCACCAGGCCACCTGCTCCCGATACCTAGATCATGGGTGGTCAGATG
DNA 2: CATCTGACCACCCATGATCTAGGTATCGGGAGCAGGTGGCCTGGTGACCC
- binding result [5]: no binding
